In US10772928B2, “Modulation and detection of a neuronal alternative splicing regulatory network for treatment and diagnosis of neurological disorders” (The Governing Council of the University of Toronto, priority 2014, dated 2020):

T1: nSR100 (Mus musculus, UniProt Q8BKA3)
T1 construct: host or cells: mouse N2A cells
T1 sequence (Q8BKA3 1-608): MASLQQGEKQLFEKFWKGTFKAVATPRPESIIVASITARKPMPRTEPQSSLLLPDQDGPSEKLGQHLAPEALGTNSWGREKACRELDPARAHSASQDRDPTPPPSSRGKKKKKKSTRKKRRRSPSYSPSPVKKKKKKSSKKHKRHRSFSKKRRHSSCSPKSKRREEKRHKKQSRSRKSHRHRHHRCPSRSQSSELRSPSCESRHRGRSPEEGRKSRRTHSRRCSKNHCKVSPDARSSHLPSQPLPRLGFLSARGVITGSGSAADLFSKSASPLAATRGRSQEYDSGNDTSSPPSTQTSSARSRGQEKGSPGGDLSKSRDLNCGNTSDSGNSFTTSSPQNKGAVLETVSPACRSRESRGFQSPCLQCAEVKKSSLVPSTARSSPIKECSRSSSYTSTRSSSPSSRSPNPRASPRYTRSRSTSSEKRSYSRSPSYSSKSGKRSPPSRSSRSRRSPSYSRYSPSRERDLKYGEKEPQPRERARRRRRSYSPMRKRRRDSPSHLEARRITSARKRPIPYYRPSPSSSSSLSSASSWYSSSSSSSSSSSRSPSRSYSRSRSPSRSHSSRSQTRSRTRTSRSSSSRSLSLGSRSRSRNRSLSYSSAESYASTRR

B1: Prpf38b (protein, UniProt Q80SY5 2-542, looked up)
Pre-mRNA-splicing factor 38B: ANNSPALTGNSQPQHQAAAAVTQQQQQCGGGGGATKPAVSGKQGNVLPLWGNEKTMNLNPMILTNILSSPYFKVQLYELKTYHEVVDEIYFKVTHVEPWEKGSRKTAGQTGMCGGVRGVGTGGIVSTAFCLLYKLFTLKLTRKQVMGLITHTDSPYIRALGFMYIRYTQPPTDLWDWFESFLDDEEDLDVKAGGGCVMTIGEMLRSFLTKLEWFSTLFPRIPVPVQKNIDQQIKTRPRKIKKDGKEGIEEIDRHVERRRSRSPRRSLSPRRSPRRSRSRSHHREGHGSSSFDRELEREKERQRLEREAKEREKERRRSRSIDRGLDRRRSRSRERHRSRSRSRDRKGDRRDRDREREKENERGRRRDRDYDKERGSDRERDRERSRERSKEQRSRGDGEEKKHKEDKEDRRHRDDKKESKKKHSRSRSRERKHRSRSRNAGKRSRSRSKDKSSRHKNESKEKANKRSRSGSQGRTGSVEKRKREHSPSREKSRKRSRSQDRSHKREHNDSKDQSDRQDHQSSQSGEPESQEKEHKSKDETV
B2: Sf3a3 (protein, UniProt Q9D554 1-501, looked up)
Splicing factor 3A subunit 3: METILEQQRRYHEEKERLMDVMAKEMLTKKSTLRDQINSDHRTRAMQDRYMEVSGNLRDLYDDKDGLRKEELNAISGPNEFAEFYNRLKQIKEFHRKHPNEICVPMSVEFEELLKARENPSEEAQNLVEFTDEEGYGRYLDLHDCYLKYINLKASEKLDYITYLSIFDQLFDIPKERKNAEYKRYLEMLLEYLQDYTDRVKPLQDQNELFGKIQTDFEKKWDNGTFPGWPKETSSALTHAGAHLDLSAFSSWEELASLGLDRLKSALLALGLKCGGTLEERAQRLFSTKGKSLESLDTSLFAKNPKSKGTKRDTERNKDIAFLEAQIYEYVEILGEQRQLTHENVQRKQARTGEEREEEEEEQISESESEDEENEIIYNPKNLPLGWDGKPIPYWLYKLHGLNINYNCEICGNYTYRGPKAFQRHFAEWRHAHGMRCLGIPNTAHFANVTQIEDAVSLWAKLKLQKASERWQPDTEEEYEDSSGNVVNKKTYEDLKRQGLL
B3: Eif4a3 (protein, UniProt Q91VC3 1-411, looked up)
Eukaryotic initiation factor …: MAANATMATSGSARKRLLKEEDMTKVEFETSEEVDVTPTFDTMGLREDLLRGIYAYGFEKPSAIQQRAIKQIIKGRDVIAQSQSGTGKTATFSVSVLQCLDIQVRETQALILAPTRELAVQIQKGLLALGDYMNVQCHACIGGTNVGEDIRKLDYGQHVVAGTPGRVFDMIRRRSLRTRAIKMLVLDEADEMLNKGFKEQIYDVYRYLPPATQVVLISATLPHEILEMTNKFMTDPIRILVKRDELTLEGIKQFFVAVEREEWKFDTLCDLYDTLTITQAVIFCNTKRKVDWLTEKMREANFTVSSMHGDMPQKERESIMKEFRSGASRVLISTDVWARGLDVPQVSLIINYDLPNNRELYIHRIGRSGRYGRKGVAINFVKNDDIRILRDIEQYYSTQIDEMPMNVADLI
B4: Dhx8 (protein, UniProt A2A4P0 1-1244, looked up)
ATP-dependent RNA helicase …: MAVAVAAAGVLMGSEPGPAEELAKLEYLSLVSKVCTELDNHLGINDKDLAEFVISLAEKNTTFDTFKASLVKNGAEFTDSLISNLLRLIQTMRPPAKPSTSKDPVVKPKTEKEKLRELFPVLCQPDNPSARTMLDEEDVKVAVDVLKELEALMPSAAGQEKQRDPEHRDRTKKKKRSRSRDRDRDRDRDRDRDRDRDRDRDKDRERDRDRERDRERDRERDHKRRHRSRSRSHSRTRERTKGKSRYRSRSRSQSPFKDRKDREKYGERNLDRWRDKHVDRPPPEEPAIGDIYNGKVTSIMQFGCFVQLEGLRKRWEGLVHISELRREGRVANVADVVSKGQRVKVKVLSFTGTKTSLSMKDVDQETGEDLNPNRRRNLVGETNEETSMRNPDRPTHLSLVSAPEVEDDSLERKRLTRISDPEKWEIKQMIAANVLSKEEFPDFDEETGILPKVDDEEDEDLEIELVEEEPPFLRGHTKQSMDMSPIKIVKNPDGSLSQAAMMQSALAKERRELKQAQREAEMDSIPMGLNKHWVDPLPDAEGRQIAANMRGIGMMPNDIPEWKKHAFGGNKASYGKKTQMSILEQRESLPIYKLKEQLVQAVHDNQILIVIGETGSGKTTQITQYLAEAGYTSRGKIGCTQPRRVAAMSVAKRVSEEFGCCLGQEVGYTIRFEDCTSPETVIKYMTDGMLLRECLIDPDLTQYAIIMLDEAHERTIHTDVLFGLLKKTVQKRQDMKLIVTSATLDAVKFSQYFYEAPIFTIPGRTYPVEILYTKEPETDYLDASLITVMQIHLTEPPGDILVFLTGQEEIDTACEILYERMKSLGPDVPELIILPVYSALPSEMQTRIFDPAPPGSRKVVIATNIAETSLTIDGIYYVVDPGFVKQKVYNSKTGIDQLVVTPISQAQAKQRAGRAGRTGPGKCYRLYTERAYRDEMLTTNVPEIQRTNLASTVLSLKAMGINDLLSFDFMDAPPMETLITAMEQLYTLGALDDEGLLTRLGRRMAEFPLEPMLCKMLIMSVHLGCSEEMLTIVSMLSVQNVFYRPKDKQALADQKKAKFHQTEGDHLTLLAVYNSWKNNKFSNPWCYENFIQARSLRRAQDIRKQMLGIMDRHKLDVVSCGKSTVRVQKAICSGFFRNAAKKDPQEGYRTLIDQQVVYIHPSSALFNRQPEWVVYHELVLTTKEYMREVTTIDPRWLVEFAPAFFKVSDPTKLSKQKKQQRLEPLYNRYEEPNAWRISRAFRRR

target: T1, nSR100; experiment: AP-MS nSR100 interaction partners from mouse N2A cells (Table 5); assay type: binding; details: bait Srrm4
Excerpt: By applying affinity purification coupled to mass-spectrometry (AP-MS), several interaction nSR100 partner proteins were detected that provide insight into mechanisms of post-translational regulation of nSR100 levels.

Molecule	AvgP (average of the SAINT scores)	MaxP (maximal SAINT score)
B1	1	1
B2	0.99	0.99
B3	0.99	1
B4	0.99	1

same assay, conditions: bait Srrm4, 0.1 added to prevent division by 0

Molecule	FoldChange between the prey Avg spectra of the bait and control purifications
B1	60
B2	10.5
B3	3.82
B4	7.33

same assay, conditions: bait Srrm4, 2 replicates

Molecule	AvgSpec (average number of spectra per replicate)
B1	6
B2	10.5
B3	21
B4	11

same assay, conditions: bait Srrm4, biological replicate 1 (first number of the cell), AP-MS

Molecule	Spectra (number of spectra for the prey in the purification of the bait)
B1	6|6
B2	11
B3	18
B4	8

same assay, conditions: bait Srrm4, biological replicate 2 (second number of the cell), AP-MS

Molecule	Spectra (number of spectra for the prey in the purification of the bait)
B1	6|6
B2	10
B3	24
B4	14

same assay, conditions: bait Srrm4, sum of spectra over 2 replicates

Molecule	SpecSum
B1	12
B2	21
B3	42
B4	22
